According to PMC11044841 (2024):

Target: GST-NTF2L (GST-tagged NTF2-like domain of G3BP1) (human)
Test: SPR

Chain of GST-NTF2L (GST-tagged NTF2-like domain of G3BP1) (human) (chain, as listed by the source): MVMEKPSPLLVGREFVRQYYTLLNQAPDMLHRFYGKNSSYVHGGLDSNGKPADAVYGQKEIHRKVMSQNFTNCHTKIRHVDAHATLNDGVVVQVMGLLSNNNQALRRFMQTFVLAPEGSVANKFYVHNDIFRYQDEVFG

Binder	Kd [nM]
MALHSPQYIFGDFSPDEFNQFFVTP [USP10 (1–25) peptide]	110
LTFGDFDEHEVDALASGITFGDFDD [SFV nsP3 (449–473) peptide]	2500
